Read-outs that look alike come from different tables or passages of the source.

In general, EC50 refers to the concentration that produces a half-maximal response. As a reminder, the EC50 (read off the curve) is the midpoint of the concentration-response curve.

Test [1] has as its target T1, cynomolgus ICOS (cynomolgus, UniProt Q9Y6W8 21-195 (human entry)).
T1 chain: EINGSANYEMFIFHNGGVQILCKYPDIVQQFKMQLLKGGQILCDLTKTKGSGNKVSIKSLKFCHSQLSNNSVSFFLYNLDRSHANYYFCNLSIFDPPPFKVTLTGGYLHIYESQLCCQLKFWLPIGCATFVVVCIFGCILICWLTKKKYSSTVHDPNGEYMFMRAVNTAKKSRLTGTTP
Description: flow cytometry, activated cynomolgus PBMCs, CD4+ subset. The procedure: (§1) Briefly, suspension cells were harvested, counted, checked for viability and re-suspended at 1 million cells per ml in FACS buffer (PBS with 0.1% BSA). […] The staining was fixed for 20 min at 4° C. in the dark, using 75 μl of 1% PFA in FACS buffer per well.
(§2) Briefly, cynomolgus PBMCs were activated for 48 hours using Dynabeads™ Human T-Activator CD3/CD28 (Thermo Fischer #11131D) according to manufacturer instruction and stored in RPMI1640 medium containing 10% FCS and 1% Glutamax (Gibco 35050061) at 37° C., in a humidified incubator until subsequent binding experiment was performed, as described above.
On the technique in general: A flow cytometer gives signals particle by particle.

In test [2] the target is T2, human FAP (human, UniProt Q12884 1-760).
T2 construct: also called hu FAP
Description: flow cytometry, NIH/3T3-huFAP clone 19 cells. Here is the method:
as §1
(§3) Fluorescence was analyzed by FACS using a FACS Fortessa (Software FACS Diva). Binding curves and EC₅₀ values were obtained using GraphPadPrism 7.

Test [3] deals with T1, cynomolgus ICOS. Description: flow cytometry, activated cynomolgus PBMCs, CD8+ subset. Here is the method: as §1, §2
The target of test [4] is T3, human ICOS (human, UniProt Q9Y6W8 21-199).
T3 construct: The cell that carries it is named under assay; also called huICOS; CD278
T3 sequence: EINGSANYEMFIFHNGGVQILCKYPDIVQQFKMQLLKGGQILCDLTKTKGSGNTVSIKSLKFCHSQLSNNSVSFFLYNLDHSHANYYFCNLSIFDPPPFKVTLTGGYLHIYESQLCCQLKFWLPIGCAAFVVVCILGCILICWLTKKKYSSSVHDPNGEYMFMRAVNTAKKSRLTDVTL
Description: flow cytometry, CHO cells expressing human ICOS. The procedure: as §1, §3

Test [5] deals with T3, human ICOS. Kind of test: flow cytometry on CHO cells expressing human ICOS, PE-labelled secondary antibody; y axis printed LOG10(MFI PE).
The target of test [6] is T3, human ICOS. Description: flow cytometry, CHO cells expressing human ICOS. The source holds these as a separate data set.
The target of test [7] is T3, human ICOS. Kind of test: cell-based or functional assay.
Test [8] addresses T3, human ICOS. Kind of test: flow cytometry on SR cells expressing human ICOS, geometric MFI.
Test [9] has as its target T3, human ICOS. Description: flow cytometry, SR cells.
Test [10] deals with T2, human FAP. Kind of test: flow cytometry, NIH/3T3-huFAP clone 19 cells. The source holds these as a separate data set.

B1: Molecule 19, bispecific 2+1 anti-ICOS (1138)/anti-FAP (4B9) huIgG1 P329GLALA kih (bispecific antibody)
heavy 1: QSLEESGGDLVKPGASLTLTCTASGFDLSSYYYMSWVRQAPGKGLEWIASIYADIYGGTTHYASWAKGRFTISKTSSTTVTLQMTSLTAADTATYFCAREDGSRYGGSGYYNLWGPGTLVTVSSASTKGPSVFPLAPSSKSTSGGTAALGCLVKDYFPEPVTVSWNSGALTSGVHTFPAVLQSSGLYSLSSVVTVPSSSLGTQTYICNVNHKPSNTKVDKKVEPKSCDKTHTCPPCPAPEAAGGPSVFLFPPKPKDTLMISRTPEVTCVVVDVSHEDPEVKFNWYVDGVEVHNAKTKPREEQYNSTYRVVSVLTVLHQDWLNGKEYKCKVSNKALGAPIEKTISKAKGQPREPQVCTLPPSRDELTKNQVSLSCAVKGFYPSDIAVEWESNGQPENNYKTTPPVLDSDGSFFLVSKLTVDKSRWQQGNVFSCSVMHEALHNHYTQKSLSLSPGGGGGSGGGGSGGGGSGGGGSEIVLTQSPGTLSLSPGERATLSCRASQSVTSSYLAWYQQKPGQAPRLLINVGSRRATGIPDRFSGSGSGTDFTLTISRLEPEDFAVYYCQQGIMLPPTFGQGTKVEIK
heavy 2: not shown
light: ALVMTQTPSSVSAAVGGTVTINCQASQNIYSNLAWYQQKPGQPPKLLIYAASYLTSGVSSRFKGSGAGTQFTLTISGVESADAATYYCQQGHTTDNIDNAFGGGTEVVVKRTVAAPSVFIFPPSDEQLKSGTASVVCLLNNFYPREAKVQWKVDNALQSGNSQESVTEQDSKDSTYSLSSTLTLSKADYEKHKVYACEVTHQGLSSPVTKSFNRGEC
Consider B1, for which the EC50 in the test with cynomolgus ICOS [1] stood at 13.5 nM; with human FAP [2], 6.16 nM; in the test with cynomolgus ICOS [3], 14 nM; with human ICOS [4], 5.44 nM.

B2: Molecule 35 (ICOS H1138_3) (antibody, human IgG1, kappa, L234A L235A, V domains shown)
VH: EVQLLESGGGLVQPGGSLRLSCAASGFDLSSYYYMSWVRQAPGKGLEWVSSIYADIYGGTTHYASWAKGRFTISKTSSTTLYLQMNSLRAEDTAVYFCAREDGSRYGGSGYYNLWGQGTLVTVSS
VL: AIQMTQSPSSLSASVGDRVTITCRASQNIYSNLAWYQQKPGKPPKLLIYAASYLTSGVSSRFSGSGSGTDFTLTISSLQPEDFATYYCQQGHTTDNIDNAFGGGTKVEIKR
notes: Human IgG format
Regarding B2, the “EC50 (read off the curve)” value in the test with human ICOS [5] was roughly 3 nM. In addition, in the test with human ICOS [6], the concentration for a half-maximal effect (EC50) was found to be 2.72 nM and the “Max (Log10(MFI))” value was 4.55 Log10(MFI). Moreover, in the test with human ICOS [7], the “EC50 of activation of Jurkat-NFAT reporter cell line” value amounted to 99.4 nM and the “Max (Counts/sec), Jurkat-NFAT reporter cell line” value stood at 59500 Counts/sec.

B3: Molecule 22, bispecific 2+1 anti-ICOS (1143v2)/anti-FAP (4B9) huIgG1 P329GLALA kih (bispecific antibody)
heavy 1: QSLEESGGDLVKPGASLTLTCKASGFDFSSAYDMSWVRQAPGKGLEWIGVIYYGDGITYYATSVKGRFTISKTSSTTVPLQMTSLTAADTATYFCARGAFLGSSYYLSLWGQGTLVTVSSASTKGPSVFPLAPSSKSTSGGTAALGCLVKDYFPEPVTVSWNSGALTSGVHTFPAVLQSSGLYSLSSVVTVPSSSLGTQTYICNVNHKPSNTKVDKKVEPKSCDKTHTCPPCPAPEAAGGPSVFLFPPKPKDTLMISRTPEVTCVVVDVSHEDPEVKFNWYVDGVEVHNAKTKPREEQYNSTYRVVSVLTVLHQDWLNGKEYKCKVSNKALGAPIEKTISKAKGQPREPQVCTLPPSRDELTKNQVSLSCAVKGFYPSDIAVEWESNGQPENNYKTTPPVLDSDGSFFLVSKLTVDKSRWQQGNVFSCSVMHEALHNHYTQKSLSLSPGGGGGSGGGGSGGGGSGGGGSEIVLTQSPGTLSLSPGERATLSCRASQSVTSSYLAWYQQKPGQAPRLLINVGSRRATGIPDRFSGSGSGTDFTLTISRLEPEDFAVYYCQQGIMLPPTFGQGTKVEIK
heavy 2: not shown
light: AIDMTQTPASVEAAVGGTVTINCQASENIYNWLAWYQQKPGQPPKLLIYDASKLASGVPSRFSASGSGTQFTLTISAVESADAATYYCQQAYTYGNIDNAFGGGTEVVVSRTVAAPSVFIFPPSDEQLKSGTASVVCLLNNFYPREAKVQWKVDNALQSGNSQESVTEQDSKDSTYSLSSTLTLSKADYEKHKVYACEVTHQGLSSPVTKSFNRGEC
Turning to B3, the EC50 is 6.53 nM in the test with cynomolgus ICOS [1]; 4.68 nM with human FAP [2]; 8.34 nM in the test with cynomolgus ICOS [3]; 0.00117 nM with human ICOS [9]; 2.19 nM with human ICOS [4]; 0.00324 nM in the test with human FAP [10]. Moreover, in the test with human ICOS [8], the 50% effective concentration (EC50 (read off the curve)) is roughly 1 nM.

Source of the values: US20220098305A1 (Hoffmann-La Roche, published 2022).
